Results as given in patent publication US20240150465A1 (Chugai, published 2024).
Blank lines part the entries; values can stand above or below the binder they belong to.

Key:
del0 = biological target: T1, del0; assay: ELISA with the human DLL3 ECD fragment proteins del0 to del6, OD405
T1 construct: also called human DLL3 ECD with Flag-tag on C-terminus
T1 chain: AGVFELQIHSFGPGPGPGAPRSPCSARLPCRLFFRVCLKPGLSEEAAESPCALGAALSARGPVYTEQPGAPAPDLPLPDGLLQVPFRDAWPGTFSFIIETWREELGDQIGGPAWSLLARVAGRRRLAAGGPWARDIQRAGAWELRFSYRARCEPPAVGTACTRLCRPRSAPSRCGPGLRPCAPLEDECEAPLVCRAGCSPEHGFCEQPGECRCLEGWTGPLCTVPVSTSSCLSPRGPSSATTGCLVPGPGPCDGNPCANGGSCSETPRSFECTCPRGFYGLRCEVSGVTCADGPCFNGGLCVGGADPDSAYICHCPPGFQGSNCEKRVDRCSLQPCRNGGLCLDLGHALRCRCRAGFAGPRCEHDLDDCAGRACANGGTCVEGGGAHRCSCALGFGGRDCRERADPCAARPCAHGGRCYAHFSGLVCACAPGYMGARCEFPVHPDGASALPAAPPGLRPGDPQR
Experimental: (§1) Nunc MaxiSorp 384-well plates (Sigma-Aldrich) were coated with each of the human DLL3 ECD fragment proteins del0 to del6, and blocked with 20% Blocking One (NACALAI TESQUE). Blocking buffer was removed and recombinant anti-DLL3 antibodies were incubated with the immobilized proteins for 1 hour at room temperature and washed with HEPES buffer (0.05% Tween20, HEPES). Monoclonal ANTI-FLAG M2-Peroxidase, Clone M2 (Sigma-Aldrich) was then added and incubated for 1 hour at room temperature and washed. Then, ABTS Microwell Peroxidase Substrate (Kirkegaard & Perry Laboratories) was added and OD405 was analyzed with […]ax 384 (Molecular Devices).

del5 = biological target: T2, del5; assay: as above
T2 construct: also called truncated human DLL3 ECD variant with Flag-tag on C-terminus
T2 chain: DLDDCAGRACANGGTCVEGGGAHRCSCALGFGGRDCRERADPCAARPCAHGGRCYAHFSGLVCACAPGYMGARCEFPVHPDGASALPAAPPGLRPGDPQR
Experimental: as §1

del6 = biological target: T3, del6; assay: as above
T3 construct: also called truncated human DLL3 ECD variant with Flag-tag on C-terminus
T3 chain: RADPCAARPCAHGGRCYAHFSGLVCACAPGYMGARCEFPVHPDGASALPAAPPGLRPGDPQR
Experimental: as §1

[1] = biological target: T4, human DLL3 (delta-like protein 3 isoform 1 precursor) expressed on Ba/F3 cells (human, UniProt Q9NYJ7 27-618); assay: cell ELISA, B-cell culture supernatants on immobilized hDLL3/BaF_H3 cells
T4 construct: Full-length cDNA stably transfected into mouse Ba/F3 cells; also called human DLL3 expressing Ba/F3
T4 sequence: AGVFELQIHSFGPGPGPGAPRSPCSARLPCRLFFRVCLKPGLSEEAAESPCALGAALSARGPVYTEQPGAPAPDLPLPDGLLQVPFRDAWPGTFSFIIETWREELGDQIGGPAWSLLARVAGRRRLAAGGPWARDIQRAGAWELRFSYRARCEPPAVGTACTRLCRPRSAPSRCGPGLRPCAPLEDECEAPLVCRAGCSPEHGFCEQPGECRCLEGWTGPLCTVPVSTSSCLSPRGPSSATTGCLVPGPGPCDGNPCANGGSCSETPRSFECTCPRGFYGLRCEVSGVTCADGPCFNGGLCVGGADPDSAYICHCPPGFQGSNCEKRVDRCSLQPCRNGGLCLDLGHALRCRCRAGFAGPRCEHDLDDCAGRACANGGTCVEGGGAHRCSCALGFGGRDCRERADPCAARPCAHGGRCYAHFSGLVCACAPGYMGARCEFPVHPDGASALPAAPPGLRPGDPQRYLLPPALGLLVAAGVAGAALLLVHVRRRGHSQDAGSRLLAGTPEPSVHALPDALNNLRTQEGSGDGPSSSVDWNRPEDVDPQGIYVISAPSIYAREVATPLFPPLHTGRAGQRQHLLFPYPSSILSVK
Experimental: ELISA screening was conducted to test specificity of antibodies in B-cell culture supernatants. Human DLL3 expressing Ba/F3 (hDLL3/BaF_H3 established in Example 2, 2.5×10⁴ cells) were immobilized onto a Nunc MaxiSorp 384-well plate (Sigma-Aldrich) which was pre-coated with BSA (Sigma-Aldrich) and SUNBRIGHT (registered trademark) OE-080CS as Biocompatible Anchor for cell Membrane (YUKA SANGYO). Immobilized cells were incubated with 20 microliters (micro L) of B-cell culture supernatants for 1 hour. The supernatants were aspirated and the cells were washed with HEPES buffer (0.02 M HEPES, 5 mM KCl, 4 mM NaHCO₃, 138 mM NaCl, 2 mM CaCl₂, 5 mM Glucose, 0.4 mM KH₂PO₄, 0.34 mM Na₂HPO₄° and 0.1% BSA). After washing, goat anti-rabbit IgG polyclonal antibody HRP conjugate (BETHYL, A120-111P) was added. The cells were further incubated on ice for 1 hour and washed. Then, ABTS Microwell Peroxidase Substrate (Kirkegaard & Perry Laboratories) was added and OD405 was analyzed with […]ax 384 (Molecular Devices).

[2] = biological target: T5, human DLL3 on the surface of cancer cell lines SK-MEL 30, NCI-H1436 and NCI-H2227 (human, UniProt Q9NYJ7 27-618); assay: flow cytometry on SK-MEL-30 cells, 20 micro g/mL antibody, FITC-labeled goat anti-rabbit IgG [A]
T5 construct: whole, on cells; Endogenous protein of human cancer cell lines
T5 sequence (looked up): T4 sequence
Experimental: The cancer cells (5×10⁵ cells) were washed with 0.5% BSA-supplemented CellWASH (BD Bioscience) (hereinafter referred to as FACS/PBS). Bivalent anti-DLL3 antibody (DLA0316-rbIgG) or the control antibody (rabbit IgG) was added at a final concentration of 20 micro g/mL in a 50 micro L solution. After being left to stand at 4 degrees C. for 30 to 60 minutes, the cells were washed with FACS/PBS, and an FITC-labeled goat anti-rabbit IgG antibody diluted 50-fold with FACS/PBS was added to the cells. After being left to stand at 4 degrees C. for further 30 minutes, the cells were washed with FACS/PBS, and analyzed by FACS Verse (Becton Dickinson).

del4 = biological target: T6, del4; assay: ELISA with the human DLL3 ECD fragment proteins del0 to del6, OD405
T6 construct: also called truncated human DLL3 ECD variant with Flag-tag on C-terminus
T6 chain: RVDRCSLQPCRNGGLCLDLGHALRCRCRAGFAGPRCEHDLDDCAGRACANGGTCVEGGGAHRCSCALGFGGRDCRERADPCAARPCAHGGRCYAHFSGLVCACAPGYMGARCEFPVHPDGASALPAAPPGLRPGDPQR
Experimental: as §1

del3 = biological target: T7, del3; assay: as above
T7 construct: also called truncated human DLL3 ECD variant with Flag-tag on C-terminus
T7 chain: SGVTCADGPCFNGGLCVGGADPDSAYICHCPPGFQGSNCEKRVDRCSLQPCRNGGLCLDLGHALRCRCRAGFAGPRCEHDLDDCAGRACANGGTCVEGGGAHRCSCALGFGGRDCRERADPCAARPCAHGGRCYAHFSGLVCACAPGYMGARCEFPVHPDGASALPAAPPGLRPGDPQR
Experimental: as §1

del2 = biological target: T8, del2; assay: as above
T8 construct: also called truncated human DLL3 ECD variant with Flag-tag on C-terminus
T8 chain: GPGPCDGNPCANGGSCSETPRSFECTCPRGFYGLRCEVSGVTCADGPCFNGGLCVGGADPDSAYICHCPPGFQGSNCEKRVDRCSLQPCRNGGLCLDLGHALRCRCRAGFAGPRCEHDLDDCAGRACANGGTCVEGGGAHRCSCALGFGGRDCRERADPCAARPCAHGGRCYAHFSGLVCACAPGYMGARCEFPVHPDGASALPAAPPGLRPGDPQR
Experimental: as §1

binding result (del0): binds
binding result (del5): no binding
binding result (del6): no binding
binding result [1]: binds
B1: DLA0126 (antibody, human IgG1, V domains shown)
VH: QSVEESGGRLVTPGTPLTLTCTVSGFSLSRYAMSWVRQAPGKGLEWIGIITGGGDPYYASWAKGRFTISKTSTTMDLKITSPTTEDTATYFCARMIGSEYASSSEYYDAFDPWGPGTLVTVSS
VL: ALVMTQTPSSVSAAVGGTVTINCQASQNIYSNLAWYQQKPGQRPKLLIYGASNLESGVPSRFKGSGSGTEYTLTISDLECDDAAIYYCQSAYYTTSVDVLYPFGGGTEVVVK
notes: Rabbit B-cell clone, screened as B-cell culture supernatant

binding result (del0): binds
binding result (del5): no binding
binding result (del6): no binding
binding result [1]: binds
B2: DLA0580 (antibody, human IgG1, V domains shown)
VH: QEQLVESGGGLVQPGASLTLTCKASGFDFTSNAMCWVRQAPGKGPEWIACIYNDDGSAYSASWAKGRFTVSKTSSTAVTLQVTGLTAADTATYFCARSPYYTYGGAPSAYASGYFNLWGPGTLVTVSS
VL: DIVMTQTPASVEAAVGGTVTIKCQASENIYNSLAWYQQKPGQPPKLLMHDASVLTSGVPSRFSGSGYGTEFTLTISDLECADAATYYCQSDYYSTGGSYGFAFGGGTEVVVK
notes: as for B1

binding result [2]: binds
B3: DLA0316-rbIgG (antibody, V domains shown)
VH: QEQLVESGGGLVQPGGSLKLSCKVSGFDFSNYGVSWVRQAPGKGLEWIGYIDPAFGRTYYASWVNGRFTISSHNAQNTLYLQLNSLTAADTATYFCVRVALVVAGVAYYGMDVWGPGTLVTVSS
VL: DVVMTQTPASVEAAVGGTVTINCQASQNIYSYLSWYQQKPGQPPKLLIYRTSTLASGVPSRFKGSGSGTQFTLTISDLECADAATYYCQSYYYSSGSSYGAFAFGGGTEVVVK
notes: also called bivalent DLA0316; Bivalent anti-DLL3 antibody

binding result (del0): binds
binding result (del4): no binding
binding result (del5): no binding
binding result (del3): no binding
binding result (del2): no binding
binding result (del6): no binding
binding result [1]: binds
B4: DLA0379 (antibody, human IgG1, V domains shown)
VH: QSLEESGGRLVTPGTPLTLTCTASGFSLNTYHMIWVRQAPGKGLEWIGIVDSGGSTYYASWAKGRFTISRTSTTVDLKATSLTTEDTATYFCARGGSWDGFNIWGPGTLVTVSS
VL: DVVMTQTPSSVSAAVGGTVTINCQSSQSVYNSDFLAWYQQKPGQPPKLLIYAASTLASGVPSRFKGSGSGTQFTLTISDLECDDAATYYCQGTYEDVGWFNDFGGGTEVVVK
notes: as for B1
